According to US20250235548A1, “ANTIBODY-DRUG CONJUGATES TARGETING NAPI2B AND METHODS OF USE” (Zymeworks BC Inc., priority 2022, published 2025):
“Also recorded” adds a separate entry of the source.

Test system: NaPi2b-negative EBC-1 cells
Experiment: Bystander activity, EBC-1 mono-culture vs co-culture with HCC-78 (Examples 19 and 34)
Type: cell-based
Conditions: for bystander activity (in words): 5 nM test article; for bystander activity (in words) / Average EBC-1 % viability in co-culture / Average EBC-1 % viability in mono-culture: 4 days
Procedure: The ability of v29456 ADCs to exert a bystander killing effect on cancer cells was assessed according to the method described below. Bystander killing can occur after target-specific uptake of an ADC into an antigen-positive cell. In this case, catabolism of the ADC results in release of payload or an active catabolite, which then crosses the cell membrane of nearby cells to elicit their death.
Cell lines used were HCC-78 (high NaPi2b expression) and EBC-1 (negative NaPi2b expression).
(§1) NaPi2b-positive HCC-78 and NaPi2b-negative EBC-1 cells were seeded either as mono-cultures or co-cultures in a 48-well plate at 15,000 cells and 5,000 cells, respectively, in 100 μL assay media (RPMI1640+10% FBS). ADCs were diluted to 10 nM in assay media and 100 μL was added to the cell-containing plates (5 nM final ADC concentration). Cells were incubated with ADCs for 4 days under standard culturing conditions (37° C./5% CO2). […] After incubation, cells were washed in FACS buffer, resuspended in 70 μL FACS buffer per well, and 35 μL per well were analyzed on a BD LSRFortessa™ Cell Analyzer (BD Biosciences, Franklin Lake, NJ). Dead cells were excluded by gating on YO—PRO®-1 staining. The number of HCC-78 and EBC-1 cells were determined by the number of events in the Alexa Fluor®647 positive (NaPi2b-positive) and Alexa Fluor®647 negative (NaPi2b-negative) gates, respectively. Percent viability was calculated as the number of cells in treatment condition divided by the number of cells in the no-treatment condition.
(§2) Bystander effect was calculated by comparing the viability of NaPi2b-negative EBC-1 cells treated as mono-culture (black bars) with that of the cells treated as a co-culture with NaPi2b-positive HCC-78 cells (grey bars). A greater decrease in viability in co-culture compared with mono-culture indicated a greater bystander effect.
Bystander killing can occur after target-specific uptake of an ADC into an antigen-positive cell, as described in Example 19. Cell lines used were HCC-78 (high NaPi2b expression) and EBC-1 (negative NaPi2b expression). Surface NaPi2b expression for these cell lines were measured as described in Example 15.
[…] […] The human antibody variant v29456 conjugated to MC-GGFG-AM-DXd1 was included as a positive control.
as §1, with “Briefly, NaPi2b-positive HCC-78” for “NaPi2b-positive HCC-78”, “10 nM or 40 nM in assay” for “10 nM in assay”, “plates (5 nM or 20 nM final” for “plates (5 nM final”, “resuspended in 60 μL FACS” for “resuspended in 70 μL FACS”, “cells in each treatment condition” for “cells in treatment condition”
as §2, with “indicates” for “indicated”

Substance | bystander activity (in words) | Average EBC-1 % viability in co-culture (5 nM ADC, co-culture with NaPi2b-positive HCC-78, relative to untreated blank) | Average EBC-1 % viability in mono-culture (5 nM ADC, relative to untreated blank) | % Bystander activity (5 nM ADC, viability in mono-culture compared with co-culture) | % Bystander activity (5 nM, Biological Replicate 1) | Average EBC-1 % viability in co-culture (5 nM, Biological Replicate 1, co-culture with HCC-78, relative to untreated blank) | Average EBC-1 % viability in mono-culture (5 nM, Biological Replicate 1, relative to untreated blank) | % Bystander activity (20 nM, Biological Replicate 1) | Average EBC-1 % viability in co-culture (20 nM, Biological Replicate 1, co-culture with HCC-78, relative to untreated blank) | Average EBC-1 % viability in mono-culture (20 nM, Biological Replicate 1, relative to untreated blank)
palivizumab MC-GGFG-AM-DXd1: "palivizumab (v22277) MC-GGFG-AM-DXd1", negative control | negative bystander activity; also recorded: negligible bystander activity |  |  |  |  |  |  |  |  | 
palivizumab MCvcPABC-MMAE: "palivizumab (v22277) MCvcPABC-MMAE", negative control | negative bystander activity; also recorded: negligible bystander activity |  |  |  |  |  |  |  |  | 
v22277-MCvcPABC-MMAE: negative (non-NaPi2b targeting) controls palivizumab (v22277) MC-GGFG-AM-DXd and palivizumab (v22277) MCvcPABC-MMAE |  | 95.8% | 86.4% | −9.4% | 7.5% | 81.7% | 89.2% | 7.4% | 84.1% | 91.5%
